Assay results from article PMC7679444.

B1: TMEM59 peptide (residues 268–280), wild type [modified: long spacer (Tds) at the N-terminal end, used for immobilisation; long spacer (Tds) at the N-terminal end, used for immobilisation] [not stated] / GST-HA-ATG16L1(231–607) … (parent)
chain 1: PLPVEQDDDIEVIVDETSDHTEETSPVRAISRAATKRLSQPAGGLLDSITNIFGRRSVSSFPVPQDNVDTHPGSGKEVRVPATALCVFDAHDGEVNAVQFSPGSRLLATGGMDRRVKLWEVFGEKCEFKGSLSGSNAGITSIEFDSAGSYLLAASNDFASRIWTVDDYRLRHTLTGHSGKVLSAKFLLDNARIVSGSHDRTLKLWDLRSKVCIKTVFAGSSCNDIVCTEQCVMSGHFDKKIRFWDIRSESIVREMELLGKITALDLNPERTELLSCSRDDLLKVIDLRTNAIKQTFSAPGFKCGSDWTRVVFSPDGSYVAAGSAEGSLYIWSVLTGKVEKVLSKQHSSSINAVAWSPSGSHVVSVDKGCKAVLWAQY
chain 2: YVPSEKLSIYGDL

Variants of: B1
Assay: peptide microarray
Details: with GST-HA-ATG16L1(231–607) [human], parent: 100

## chain 2 S8E
Ligand 200, 50, 20 nM
  percent of parent: 6 % WT
Ligand 800, 600, 400 nM
  percent of parent: 11 % WT

## chain 2 S8H
Ligand 200, 50, 20 nM
  percent of parent: 124 % WT
Ligand 800, 600, 400 nM
  percent of parent: 115 % WT

## chain 2 S8P
Ligand 200, 50, 20 nM
  percent of parent: 50 % WT
Ligand 800, 600, 400 nM
  percent of parent: 78 % WT

## chain 2 S8A
Ligand 200, 50, 20 nM
  percent of parent: 55 % WT
Ligand 800, 600, 400 nM
  percent of parent: 59 % WT

## chain 2 S8W
Ligand 800, 600, 400 nM
  percent of parent: 179 % WT

## chain 2 S8L
Ligand 200, 50, 20 nM
  percent of parent: 56 % WT
Ligand 800, 600, 400 nM
  percent of parent: 74 % WT

## chain 2 S8G
Ligand 200, 50, 20 nM
  percent of parent: 56 % WT
Ligand 800, 600, 400 nM
  percent of parent: 57 % WT

## chain 2 S8R
Ligand 200, 50, 20 nM
  percent of parent: 113 % WT
Ligand 800, 600, 400 nM
  percent of parent: 115 % WT

## chain 2 S8I
Ligand 200, 50, 20 nM
  percent of parent: 41 % WT
Ligand 800, 600, 400 nM
  percent of parent: 51 % WT

## chain 2 S8N
Ligand 200, 50, 20 nM
  percent of parent: 126 % WT
Ligand 800, 600, 400 nM
  percent of parent: 111 % WT

## chain 2 S8F
Ligand 200, 50, 20 nM
  percent of parent: 175 % WT
Ligand 800, 600, 400 nM
  percent of parent: 144 % WT

## chain 2 S8M
Ligand 200, 50, 20 nM
  percent of parent: 21 % WT
Ligand 800, 600, 400 nM
  percent of parent: 27 % WT

## chain 2 S8T
Ligand 200, 50, 20 nM
  percent of parent: 54 % WT
Ligand 800, 600, 400 nM
  percent of parent: 67 % WT

## chain 2 S8V
Ligand 800, 600, 400 nM
  percent of parent: 60 % WT

## chain 2 S8D
Ligand 200, 50, 20 nM
  percent of parent: 7 % WT
Ligand 800, 600, 400 nM
  percent of parent: 9 % WT

## chain 2 S8Y
Ligand 800, 600, 400 nM
  percent of parent: 137 % WT

## chain 2 S8Q
Ligand 200, 50, 20 nM
  percent of parent: 64 % WT
Ligand 800, 600, 400 nM
  percent of parent: 113 % WT

## chain 2 S8K
Ligand 200, 50, 20 nM
  percent of parent: 158 % WT
Ligand 800, 600, 400 nM
  percent of parent: 144 % WT

## chain 2 S4E
Ligand 200, 50, 20 nM
  percent of parent: 38 % WT
Ligand 800, 600, 400 nM
  percent of parent: 45 % WT

## chain 2 S4D
Ligand 200, 50, 20 nM
  percent of parent: 33 % WT
Ligand 800, 600, 400 nM
  percent of parent: 29 % WT

## chain 2 S4K
Ligand 200, 50, 20 nM
  percent of parent: 262 % WT
Ligand 800, 600, 400 nM
  percent of parent: 180 % WT

## chain 2 S4V
Ligand 200, 50, 20 nM
  percent of parent: 156 % WT
Ligand 800, 600, 400 nM
  percent of parent: 144 % WT

## chain 2 S4Q
Ligand 200, 50, 20 nM
  percent of parent: 88 % WT
Ligand 800, 600, 400 nM
  percent of parent: 94 % WT

## chain 2 S4A
Ligand 200, 50, 20 nM
  percent of parent: 78 % WT
Ligand 800, 600, 400 nM
  percent of parent: 73 % WT

## chain 2 S4M
Ligand 200, 50, 20 nM
  percent of parent: 31 % WT
Ligand 800, 600, 400 nM
  percent of parent: 32 % WT

## chain 2 S4L
Ligand 200, 50, 20 nM
  percent of parent: 163 % WT
Ligand 800, 600, 400 nM
  percent of parent: 157 % WT

## chain 2 S4R
Ligand 200, 50, 20 nM
  percent of parent: 110 % WT
Ligand 800, 600, 400 nM
  percent of parent: 110 % WT

## chain 2 S4Y
Ligand 200, 50, 20 nM
  percent of parent: 320 % WT
Ligand 800, 600, 400 nM
  percent of parent: 188 % WT

## chain 2 S4T
Ligand 200, 50, 20 nM
  percent of parent: 62 % WT
Ligand 800, 600, 400 nM
  percent of parent: 69 % WT

## chain 2 S4I
Ligand 200, 50, 20 nM
  percent of parent: 176 % WT
Ligand 800, 600, 400 nM
  percent of parent: 155 % WT

## chain 2 S4N
Ligand 200, 50, 20 nM
  percent of parent: 38 % WT
Ligand 800, 600, 400 nM
  percent of parent: 30 % WT

## chain 2 S4G
Ligand 200, 50, 20 nM
  percent of parent: 49 % WT
Ligand 800, 600, 400 nM
  percent of parent: 64 % WT

## chain 2 S4F
Ligand 200, 50, 20 nM
  percent of parent: 1 % WT
Ligand 800, 600, 400 nM
  percent of parent: 1 % WT

## chain 2 S4H
Ligand 200, 50, 20 nM
  percent of parent: 122 % WT
Ligand 800, 600, 400 nM
  percent of parent: 106 % WT

## chain 2 S4W
Ligand 200, 50, 20 nM
  percent of parent: 352 % WT
Ligand 800, 600, 400 nM
  percent of parent: 187 % WT

## chain 2 S4P
Ligand 200, 50, 20 nM
  percent of parent: 63 % WT
Ligand 800, 600, 400 nM
  percent of parent: 65 % WT

## chain 2 L7N
Ligand 200, 50, 20 nM
  percent of parent: 46 % WT
Ligand 800, 600, 400 nM
  percent of parent: 75 % WT

## chain 2 L7P
Ligand 200, 50, 20 nM
  percent of parent: 13 % WT
Ligand 800, 600, 400 nM
  percent of parent: 11 % WT

## chain 2 L7D
Ligand 200, 50, 20 nM
  percent of parent: 11 % WT
Ligand 800, 600, 400 nM
  percent of parent: 12 % WT

## chain 2 L7A
Ligand 200, 50, 20 nM
  percent of parent: 98 % WT
Ligand 800, 600, 400 nM
  percent of parent: 88 % WT

## chain 2 L7M
Ligand 200, 50, 20 nM
  percent of parent: 39 % WT
Ligand 800, 600, 400 nM
  percent of parent: 52 % WT

## chain 2 L7I
Ligand 200, 50, 20 nM
  percent of parent: 83 % WT
Ligand 800, 600, 400 nM
  percent of parent: 95 % WT

## chain 2 L7H
Ligand 200, 50, 20 nM
  percent of parent: 66 % WT
Ligand 800, 600, 400 nM
  percent of parent: 103 % WT

## chain 2 L7V
Ligand 200, 50, 20 nM
  percent of parent: 153 % WT
Ligand 800, 600, 400 nM
  percent of parent: 142 % WT

## chain 2 L7W
Ligand 200, 50, 20 nM
  percent of parent: 38 % WT
Ligand 800, 600, 400 nM
  percent of parent: 112 % WT

## chain 2 L7Y
Ligand 200, 50, 20 nM
  percent of parent: 69 % WT
Ligand 800, 600, 400 nM
  percent of parent: 87 % WT

## chain 2 L7K
Ligand 200, 50, 20 nM
  percent of parent: 22 % WT
Ligand 800, 600, 400 nM
  percent of parent: 53 % WT

## chain 2 L7G
Ligand 200, 50, 20 nM
  percent of parent: 54 % WT
Ligand 800, 600, 400 nM
  percent of parent: 86 % WT
